According to patent US20210002363A1 (PHANES THERAPEUTICS, published 2021):
Where a chain is given by its changes, count along the chain named. Each block holds one binder with its values, some of them ahead of it.

Key:
[1] = molecular target: T1, Recombinant extracellular domain of human FOLR1 (Novoprotein, Cat#: C784) (human, UniProt P15328 25-233, limits assumed); experiment: SPR (Biacore 8k), mAb captured on protein A chip, recombinant FOLR1 as analyte, 1:1 model
T1 construct: Bought reagent; also called recombinant FOLR1; immobilized FOLR1 extracellular domain
T1 sequence (P15328 25-233 limits assumed): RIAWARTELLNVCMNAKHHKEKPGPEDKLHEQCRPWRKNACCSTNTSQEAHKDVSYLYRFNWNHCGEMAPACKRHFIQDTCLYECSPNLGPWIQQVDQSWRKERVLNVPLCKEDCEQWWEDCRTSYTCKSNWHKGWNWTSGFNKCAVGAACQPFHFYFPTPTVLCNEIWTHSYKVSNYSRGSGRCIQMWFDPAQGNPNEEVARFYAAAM
Method: The interaction of the chimeric anti-FOLR1 mAbs and FOLR1 was measured by Surface Plasmon Resonance (SPR) (Biacore 8k, GE Healthcare). Briefly, an anti-FOLR1 mAb was immobilized to a protein A sensor chip (GE Healthcare, Cat#: 29-1275-56) in HBS-P buffer (0.01 M HEPES pH 7.4, 0.15 M NaCl, 0.05% v/v Surfactant P20) with an injection flow rate at […]. The recombinant FOLR1 (Novoprotein, Cat#: C784) at variant concentrations was loaded with the flow rate of 30 μL/min in HBS-P buffer. Following antigen loading, the surface was regenerated with 10 mM glycine-HCl (pH 1.5). Sensor grams were fit with a 1:1 binding model using Biacore 8k evaluation software (GE Healthcare).

[2] = molecular target: T1, Recombinant extracellular domain of …; experiment: ELISA on plate-coated recombinant human FOLR1 extracellular domain; anti-human IgG-HRP; O.D. 450 nm
Method: The Purified chimeric mAbs were tested in an ELISA assay for their ability to bind to immobilized human FOLR1. Recombinant extracellular domain of human FOLR1 (Novoprotein, Cat#: C784) in carbonate coating buffer was coated on a 96-well plate at room temperature for 1 hour. The plate is blocked by 5% BSA in TBST for 1 hour at room temperature. In each well of an individual plate, mAbs at various concentrations were incubated for 1 hour at room temperature. The plate was washed and the binding to FOLR1 was detected by anti-human IgG conjugated to horseradish peroxidase (hIgG-HRP) (ThermoFisher Scientific, Cat#: H10007) with incubation for 1 hour at room temperature. Then after washing, the ELISA was developed using One-step Detection Solution (ThermoFisher Scientific, Cat#: 34028) and measured as the absorbance at 450 nm.

[3] = molecular target: T2, FOLR1 on SK-OV-3 cells (ATCC HTB-77) (Homo sapiens (Human), UniProt P15328 25-234); experiment: FACS on SK-OV-3 cells; Alexa Fluor 488 F(ab')2 goat anti-human IgG Fc; MFI
T2 construct: Endogenous FOLR1 of the cell line; also called cells that are known to express FOLR1
T2 sequence (P15328 25-234 limits assumed): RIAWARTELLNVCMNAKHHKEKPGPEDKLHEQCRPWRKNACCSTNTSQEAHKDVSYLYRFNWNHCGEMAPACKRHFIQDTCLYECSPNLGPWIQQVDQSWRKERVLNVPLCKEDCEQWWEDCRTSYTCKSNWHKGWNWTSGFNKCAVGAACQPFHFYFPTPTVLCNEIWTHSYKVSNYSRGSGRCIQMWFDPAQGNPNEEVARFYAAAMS
Method: To assess the binding of the chimeric anti-FOLR1 mAbs to cells that are known to express FOLR1, SK-OV-3 (ATCC® HTB-77™) cells were plated at 80,000 cells per well on a 96-well non-binding U-bottom plate (Greiner Bio-One, Cat#: 650901). In some experiments, 90,000 cells per well were used. The cells were incubated in 50 μL FACS buffer (HBSS with 0.1% BSA and 0.05% sodium azide) containing mAbs at different concentrations on ice for 15 minutes. After wash, cells were incubated in 50 μL FACS buffer containing 3.5 μg/mL F(ab′)2-Goat anti-Human IgG Fc conjugated to Alexa Fluor® 488 (Invitrogen, Cat#: H10120) on ice for 15 minutes in dark and washed again. Cells were analyzed using an Attune NxT flow cytometer. MFI, mean fluorescence intensity.

[4] = molecular target: T3, full-length human FOLR1 on stably transfected CHO cells (human, UniProt P15328 25-234); experiment: FACS on CHO cells stably expressing full-length human FOLR1; PE goat anti-mouse IgG; MFI
T3 construct: also called CHO cells stably expressing human FOLR1
T3 sequence (P15328 25-234 limits assumed): as above
Method: CHO cells stably transfected with full-length human FOLR1 were transferred to a 96-well plate at 200,000 cells/well, washed once with FACS buffer (1×PBS, pH6.8+2% FBS) and incubated with purified mouse anti-FOLR1 mAbs from hybridoma supernatants at various concentrations for 15 minutes on ice. Cells were then centrifuged at 1,000 rpm for 5 minutes and washed with FACS buffer three times. The cells were incubated with PE-conjugated goat anti-mouse IgG polyclonal antibodies and incubated on ice for another 15 minutes. Cells were then washed with FACS buffer three times and then resuspended in FACS buffer containing 0.1 μg/ml PI (propidium iodide) for live/dead cell gating. Cells were then run through the FACS Caliber instrument and the data were analyzed by the Flowjo software. MFI, mean fluorescence intensity.

[5] = molecular target: T1, Recombinant extracellular domain of …; experiment: ELISA on immobilized FOLR1 extracellular domain; O.D. 450 nm
[6] = molecular target: T1, Recombinant extracellular domain of …; experiment: as above; remark: listed apart in the source
[7] = molecular target: T2, FOLR1 on SK-OV-3 cells (ATCC HTB-77); experiment: FACS on SK-OV-3 cells; MFI

B1: chimeric anti-FOLR1 mAb F7 (antibody, V domains shown)
VH: EFQLQQSGPELVKPGASVKISCKASGYSFTDYNMNWVKQSNGKSLEWIGVIDPNYGTTNYNQKFVGKATLTVDQSSITAYMQLNSLTAEDSAVYFCAIKGYGNPAAYWGQGTLVTVSA
VL: DIQMTQSPSSLSASLGGKVTITCKASQDINKYLAWYQHEPGKGPRLLIRYTSILESGIPSRFSGSGSGRDYSFSISNLEPEDIATYYCLQYYNLWTFGGGTKLEIK
notes: also called Chimeric mAb F7
Kd [1]: 2.33 nM
EC50 (read off the curve) [2]: ~0.1 nM
EC50 (read off the curve) [3]: ~0.2 nM

B5: chimeric anti-FOLR1 mAb F4 (antibody, V domains shown)
VH: EVQLVESGGGLVKPGGSLKLSCAASGFTFSDYGMHWVRQAPEKGLEWVAFISSGSNTIYYADIVKGRFAISRDNAKNTLFLQMASLRSEDTALYYCARLAEWDVAYWGQGTLVTVSA
VL: DIVLTQSPATLSVTPGDRISLSCRASQNINNNLHWYQQKSHESPRLLIKFASQSISGIPSRFSGSGSGTDFTLNINGVETEDFGMYFCQQIYSWPQLTFGAGTRLELK
notes: also called Chimeric mAb F4
Kd [1]: 0.547 nM
EC50 (read off the curve) [2]: ~0.2 nM
EC50 (read off the curve) [3]: ~0.5 nM

B7: F5-H2L1 (antibody, V domains shown)
VH: EVQLVESGGGLVQPGGSLRLSCAVSGFTFSNYGMSWVRQAPGKGLEWVATISSGGSYTYYPDSVKGRFTISRDNSKNTLYLQMNSLRAEDTAVYYCSTQGSSGYVGYWGQGTLVTVSS
VL: DIQMTQSPSSVSASVGDRVTITCKASQDITNFIGWYQHKPGKAPKLLISYTSILESGVPSRFSGSGSGRDYTLTISSLQPEDFATYYCLQYYNLWTFGGGTKVEIK
notes: also called humanized F5 mAb H2L1
EC50 (read off the curve) [5]: ~0.3 nM

B8: F5-H1L1 (antibody, V domains shown)
VH: B7 VH with V5L
VL: B7 VL
notes: also called humanized F5 mAb H1L1
EC50 (read off the curve) [5]: ~0.4 nM

B9: F5-H3L2 (antibody, V domains shown)
VH: B7 VH with N84S
VL: B7 VL with R69T
notes: also called humanized F5 mAb H3L2
binding result [6]: binds

B10: F5-H3L1 (antibody, V domains shown)
VH: B7 VH with N84S
VL: B7 VL
notes: also called humanized F5 mAb H3L1
binding result [6]: binds

B11: F20-H3L1 (antibody, V domains shown)
VH: QVQLVQSGAEVKKPGSSVKVSCKASGYTFASYYLYWVRQAPGQGLEWIGEINPRSGGTNFNEKFKSKATVTVDKSTNTAYMELSSLRSEDTAVYYCSRSGRLRGFYTMDYWGQGTLVTVSS
VL: DIVMTQSPDSLAVSLGERATINCKAGENVGSYVSWYQQKPGQPPKLLIYGASNRYTGVPDRFSGSGSATDFTLTISSLQAEDVAVYYCGQTYRFLTFGQGTKVEIK
notes: also called humanized F20 mAb H3L1
EC50 (read off the curve) [7]: 1 to 2 nM

B12: F20-H1L1 (antibody, V domains shown)
VH: B11 VH with K67R, N77S
VL: B11 VL
notes: also called humanized F20 mAb H1L1
EC50 (read off the curve) [7]: 1 to 2 nM

B13: F20-H3L2 (antibody, V domains shown)
VH: B11 VH
VL: B11 VL with P43S
notes: also called humanized F20 mAb H3L2
EC50 (read off the curve) [7]: 1 to 2 nM

Now from value to binder:

EC50 (read off the curve) [4]: ~0.1 µg/mL
B2: mouse anti-FOLR1 mAb F7 (purified from hybridoma supernatant) (antibody, V domains shown)
VH: B1 VH
VL: B1 VL
notes: Mouse antibody from hybridoma, purified on Protein A, detected with anti-mouse IgG; also called mAb clone F7

EC50 (read off the curve) [4]: ~0.3 µg/mL
B3: mouse anti-FOLR1 mAb F17 (purified from hybridoma supernatant) (antibody, V domains shown)
VH: DVQLVESGGGLVQPGGSRKLSCAASGFTFSDFGMHWIRQAPERGLEWVAYMSYTPGTFHYADTVKDRFFISRDNAKNTLFLQMTSLRSDDTAMYYCARVHVGTVDYWGQGTSVTVSS
VL: DVVLTQSPATLSVTPGDSVSLSCRASQNINNNLHWFQQKSHESPRLLIKYASQSISGIPSRFSGSGSGTDFTLSINNVETEDFGIYFCQQSNSWPALTFGTGTKVELK
notes: Mouse antibody from hybridoma, purified on Protein A, detected with anti-mouse IgG; also called mAb clone F17

Kd [1]: 11.8 nM
B4: chimeric anti-FOLR1 mAb F19 (antibody, V domains shown)
VH: EVKLDETGGGLVQPGRPMKLSCVASGFTFSDYWMNWVRQSPDKGLEWVAQIGNKFHNYETYYSDSVKGRFTISRDDSKSSVYLQMNSLRVEDTGIYYCTKLGRGYYVMDYWGQGTSVTVSS
VL: DIQMTQTTSSLSASLGDRVTLNCRASQDITNHLNWFQQKPDGTFQLLIYYTSRLHSGVPSRFSGSGSGTDYSLTISNLEQEDFATYFCQQDSQHPWTFGGGTKLEIK
notes: also called Chimeric mAb F19

EC50 (read off the curve) [4]: ~1 µg/mL
B6: mouse anti-FOLR1 mAb F4 (purified from hybridoma supernatant) (antibody, V domains shown)
VH: B5 VH
VL: B5 VL
notes: Mouse antibody from hybridoma, purified on Protein A, detected with anti-mouse IgG; also called mAb clone F4

EC50 (read off the curve) [4]: ~0.5 µg/mL
B14: mouse anti-FOLR1 mAb F8 (purified from hybridoma supernatant) (antibody, V domains shown)
VH: EVMLVESGGGLVKPGGSLKLSCVASGFTLSTYAMSWVRQTPEKRLEWVATISGGGGDTYHLDTVKGRFTISRDNAKNTLYLQMSSLRSEDTALYYCARQSHYGSSYYFDNWGQGTTLTVSS
VL: DIQMTQSPASLSASVGEIVTIICRVSENIDSYLAWYQQKQGKSPQLLVYAATNLADGVPSRFSGSGSGSQYSLKINSLQSEDVARYYCQHYYTTPPTFGGGTKLDIK
notes: Mouse antibody from hybridoma, purified on Protein A, detected with anti-mouse IgG; also called mAb clone F8

Kd [1]: 0.721 nM
B15: chimeric anti-FOLR1 mAb F8 (antibody, V domains shown)
VH: B14 VH
VL: B14 VL
notes: also called Chimeric mAb F8

Kd [1]: 1 nM
B16: chimeric anti-FOLR1 mAb F20 (antibody, V domains shown)
VH: QVQLQQSGAELVKPGASVQLSCKASGYTFASYYLYWVKQRPGQGLEWIGEINPRSGGTNFNEKFKSKATVTVDKSSSTAYMQLSSLTSEDSAVYYCSRSGRLRGFYTMDYWGQGTSVTVSS
VL: NIVMTQSPKSMSVSVGERVTLSCKAGENVGSYVSWYQQKPEQSPELLIYGASNRYTGVPDRFTGSGSATDFTLTISSVQAEDLADYYCGQTYRFLTFGAGTKLELK
notes: also called Chimeric mAb F20
